Measured values taken from paper PMC5231407.
“And” between values parts separate entries of the source, which are not always exact repeats. Equal values may be shown once. Values belong to the substance of their own block, whether it stands above or below them.

Key:
[1] = molecular target: LapD (Pseudomonas fluorescens Pf0-1), full-length, non-fluorescent, detergent-solubilized (Pseudomonas fluorescens Pf0-1) (UniProt Q3KK31); assay: SEC-MALS; LapD incubated with LapG and c-di-GMP; c-di-GMP omitted from the mobile phase
[2] = molecular target: LapD (Pseudomonas fluorescens Pf0-1), full-length, non-fluorescent, detergent-solubilized (Pseudomonas fluorescens Pf0-1) (UniProt Q3KK31); assay: SEC-MALS; LapD (~28 μM) incubated with 100 μM c-di-GMP, concentrated ~5-fold; 20 μM c-di-GMP in the mobile phase
[3] = molecular target: LapD (Pseudomonas fluorescens Pf0-1), full-length, non-fluorescent, detergent-solubilized (Pseudomonas fluorescens Pf0-1) (UniProt Q3KK31); assay: SEC-MALS; LapD incubated with 100 μM c-di-GMP and a 3-fold molar excess of LapG over LapD dimer, concentrated; 20 μM c-di-GMP in the mobile phase
[4] = molecular target: LapD (Pseudomonas fluorescens Pf0-1), full-length, non-fluorescent, detergent-solubilized (Pseudomonas fluorescens Pf0-1) (UniProt Q3KK31); assay: SEC-MALS; apo protein, ~10 mg/ml (~140 μM), Superdex 200 10/300; 25 mM Tris-HCl pH 7.6, 250 mM NaCl, 0.005% LMNG, 0.04% CHAPS; protein-conjugate analysis
[5] = molecular target: LapG labeled with Oregon Green 488 maleimide at C135 (Pseudomonas fluorescens Pf0-1); assay: fluorescence polarisation; fluorescence anisotropy; 1 µM Oregon Green 488-labeled LapG fixed, detergent-solubilized LapD titrated 1–36 µM; without c-di-GMP; apparent
[6] = molecular target: LapG labeled with Oregon Green 488 maleimide at C135 (Pseudomonas fluorescens Pf0-1); assay: fluorescence polarisation; fluorescence anisotropy; 1 µM Oregon Green 488-labeled LapG fixed, detergent-solubilized LapD titrated 1–36 µM; with 100 µM c-di-GMP; apparent
[7] = molecular target: LapD^TMcys lacking sfGFP (non-fluorescent; C304A, C397S) (Pseudomonas fluorescens Pf0-1) (UniProt Q3KK31); assay: SEC-MALS; apo protein, ~10 mg/ml (~140 μM), Superdex 200 10/300; 25 mM Tris-HCl pH 7.6, 250 mM NaCl, 0.005% LMNG, 0.04% CHAPS; protein-conjugate analysis
[8] = molecular target: LapD^TMcys-A602C lacking sfGFP (non-fluorescent) (Pseudomonas fluorescens Pf0-1) (UniProt Q3KK31); assay: as above
[9] = molecular target: LapD–sfGFP (native LapD with C-terminal monomeric superfolder GFP) (Pseudomonas fluorescens Pf0-1) (UniProt Q3KK31); assay: as above

stoichiometry N [1]: 2 | stoichiometry N [2]: 4 and 2 | stoichiometry N [3]: 4 | stoichiometry N [4]: 2 | Kd [5]: 11.7 µM | Kd [6]: 1.9 µM
Substance: LapD (Pseudomonas fluorescens Pf0-1), full-length, non-fluorescent, detergent-solubilized (from UniProt Q3KK31 1-648) (receptor)

stoichiometry N [7]: 2
Substance: LapD^TMcys lacking sfGFP (non-fluorescent; C304A, C397S) (from UniProt Q3KK31 1-648) (receptor)

stoichiometry N [8]: 2
Substance: LapD^TMcys-A602C lacking sfGFP (non-fluorescent) (from UniProt Q3KK31 1-648) (receptor)

stoichiometry N [9]: 2
Substance: LapD–sfGFP (native LapD with C-terminal monomeric superfolder GFP) (from UniProt Q3KK31 1-648) (receptor)
